Data taken from publication PMC5384775.
Substitutions are numbered along the chain they refer to. Names may count otherwise. One block for each molecule: values may come before it.

Experiments:
[1] = molecular target: filamentous actin (F-actin) (UniProt P68135); assay: co-sedimentation; His-tagged vinculin or mutants (2 uM; WT also at 0.25 uM with 10 or 25 uM peptide) with 4 uM pre-polymerized F-actin and 25 uM VBS3(talin) peptide as activator; 50 mM Tris-HCl pH 8.0, 0.2 mM MgCl2, 0.2 mM ATP, 1 mM DTT; 1 h at 24 C; 150,000 x g 1 h at 4 C; SDS-PAGE, CBB staining, ratio of precipitated to total vinculin by ImageJ
[2] = molecular target: filamentous actin (F-actin) (UniProt P68135); assay: co-sedimentation; His-tagged vinculin or mutants (1 uM) with 4 uM pre-polymerized F-actin and 10 uM GST-VBS(IpaA 610-633) as activator; 50 mM Tris-HCl pH 8.0, 0.2 mM MgCl2, 0.2 mM ATP, 1 mM DTT; 1 h at 24 C; 150,000 x g 1 h at 4 C; SDS-PAGE, CBB staining, ratio of precipitated to total vinculin by ImageJ
[3] = molecular target: filamentous actin (F-actin), P68135; assay: actin co-sedimentation assay; settings: chain shown with the change

Molecule: His-tagged vinculin VA mutant (V1001A) (from UniProt Q64727 1-1066) (natural protein)
- percent of vinculin coprecipitated with F-actin [2]: 53%

Molecule: His-tagged vinculin IA mutant (I997A) (from UniProt Q64727 1-1066) (natural protein)
- percent of vinculin coprecipitated with F-actin [2]: 42%

Other lines, results leading:

- percent of vinculin coprecipitated with F-actin [1]: 40%
- percent of vinculin coprecipitated with F-actin [2]: 84%
Molecule: His-tagged WT vinculin (from UniProt Q64727 1-1066) (natural protein)

- response ([3]; 2 μM His-tagged vinculin, 25 μM VBS3(talin), parent: est. 41, read off a plot): 59%
B1: His-tagged WT vinculin, Q64727 D974A; K975A; R976A; R978A (protein)
chain: MPVFHTRTIESILEPVAQQISHLVIMHEEGEVDGKAIPDLTAPVAAVQAAVSNLVRVGKETVQTTEDQILKRDMPPAFIKVENACTKLVQAAQMLQSDPYSVPARDYLIDGSRGILSGTSDLLLTFDEAEVRKIIRVCKGILEYLTVAEVVETMEDLVTYTKNLGPGMTKMAKMIDERQQELTHQEHRVMLVNSMNTVKELLPVLISAMKIFVTTKNSKNQGIEEALKNRNFTVEKMSAEINEIIRVLQLTSWDEDAWASKDTEAMKRALASIDSKLNQAKGWLRDPNASPGDAGEQAIRQILDEAGKVGELCAGKERREILGTCKMLGQMTDQVADLRARGQGASPVAMQKAQQVSQGLDVLTAKVENAARKLEAMTNSKQSIAKKIDAAQNWLADPNGGPEGEEQIRGALAEARKIAELCDDPKERDDILRSLGEIAALTSKLGDLRRQGKGDSPEARALAKQVATALQNLQTKTNRAVANSRPAKAAVHLEGKIEQAQRWIDNPTVDDRGVGQAAIRGLVAEGHRLANVMMGPYRQDLLAKCDRVDQLTAQLADLAARGEGESPQARALASQLQDSLKDLKAQMQEAMTQEVSDVFSDTTTPIKLLAVAATAPPDAPNREEVFDERAANFENHSGRLGATAEKAAAVGTANKSTVEGIQASVKTARELTPQVISAARILLRNPGNQAAYEHFETMKNQWIDNVEKMTGLVDEAIDTKSLLDASEEAIKKDLDKCKVAMANIQPQMLVAGATSIARRANRILLVAKREVENSEDPKFREAVKAASDELSKTISPMVMDAKAVAGNISDPGLQKSFLDSGYRILGAVAKVREAFQPQEPDFPPPPPDLEQLRLTDELAPPKPPLPEGEVPPPRPPPPEEKDEEFPEQKAGEVINQPMMMAARQLHDEARKWSSKGNDIIAAAKRMALLMAEMSRLVRGGSGTKRALIQCAKDIAKASDEVTRLAKEVAKQCTAAAIATNLLQVCERIPTISTQLKILSTVKATMLGRTNISDEESEQATEMLVHNAQNLMQSVKETVREAEAASIKIRTDAGFTLRWVRKTPWYQ

- response ([3]; 1 μM His-tagged vinculin, 10 μM GST-VBS(IpaA), parent: est. 84, read off a plot): 43%
B2: His-tagged WT vinculin, Q64727 I997A; V1001A (protein)
chain: B1 chain with A974D, A975K, A976R, A978R, I997A, V1001A
